Assay results from article PMC5171882, “Metagenomic mining for thermostable esterolytic enzymes uncovers a new family of bacterial esterases” (Scientific Reports, 2016).

Assays:
Experiment in all cases: purified protein
Format in all cases: biochemical, uncultured Acetothermia bacterium
Details in all cases: standard reaction: 25 mM Tris-HCl pH 8, 0.05% Triton X-100, 50 °C
[1] = substrate: CC(=O)Oc1ccc([N+](=O)[O-])cc1
[2] = substrate: CCCC(=O)Oc1ccc([N+](=O)[O-])cc1
[3] = substrate: CCCCCCCC(=O)Oc1ccc([N+](=O)[O-])cc1
[4] = substrate: CCCCCCCCCC(=O)Oc1ccc([N+](=O)[O-])cc1

B1: EstDZ2 (uncultured Acetothermia bacterium) (protein)
chain: APPFSFQVYTDVVYYDGPDAHPTKHRLDLFVPDGLQDAPVLIFVHGGGWTSGDKNLYAFIGQAFAAQGFATAVINYRLSPQVQHPAHIEDVARAFSWVYKNIARYGGNPEKIFVTGHSAGGHLTALLALDEKYLQAHGLTLAAIKGAIPISGVYDVTPVLALYRTVFGADPDQRWDASPLAHVGPNKPPFLILYAQFDFPGLGLQAQQLFAELRTHNNEATLTEIPNRDHVTIVATIGASNDPTTEEI
notes: predicted signal peptide (aa 2-21) replaced by N-terminal hexa-histidine tag, kept; E. coli BL21(DE3); Ni-NTA; monomer, ~29 kDa; HGGG and GHSAG motifs; primer encodes APPFSF after His tag
**Q.** Which results are given for B1?
**A.** Km [1]: 0.67 ± 0.15 mM; kcat/Km [1]: 1.76e+06 M⁻¹ s⁻¹; Km [2]: 0.32 ± 0.09 mM; kcat/Km [2]: 1.44e+07 M⁻¹ s⁻¹; Km [3]: 0.20 ± 0.02 mM; kcat/Km [3]: 1.04e+07 M⁻¹ s⁻¹; Km [4]: 0.12 ± 0.01 mM; kcat/Km [4]: 7.55e+06 M⁻¹ s⁻¹
